The target in the assay is T1, GST-tagged AR (human (Gene ID 367 is the human gene), UniProt P10275 1-920).
T1 construct: androgen receptor, Gene ID 367, in vector pGEX-4T-1; also called GST-AR; source: BL21 (Rosetta) bacterial cells, purified (protein purification kit)
T1 sequence (looked up): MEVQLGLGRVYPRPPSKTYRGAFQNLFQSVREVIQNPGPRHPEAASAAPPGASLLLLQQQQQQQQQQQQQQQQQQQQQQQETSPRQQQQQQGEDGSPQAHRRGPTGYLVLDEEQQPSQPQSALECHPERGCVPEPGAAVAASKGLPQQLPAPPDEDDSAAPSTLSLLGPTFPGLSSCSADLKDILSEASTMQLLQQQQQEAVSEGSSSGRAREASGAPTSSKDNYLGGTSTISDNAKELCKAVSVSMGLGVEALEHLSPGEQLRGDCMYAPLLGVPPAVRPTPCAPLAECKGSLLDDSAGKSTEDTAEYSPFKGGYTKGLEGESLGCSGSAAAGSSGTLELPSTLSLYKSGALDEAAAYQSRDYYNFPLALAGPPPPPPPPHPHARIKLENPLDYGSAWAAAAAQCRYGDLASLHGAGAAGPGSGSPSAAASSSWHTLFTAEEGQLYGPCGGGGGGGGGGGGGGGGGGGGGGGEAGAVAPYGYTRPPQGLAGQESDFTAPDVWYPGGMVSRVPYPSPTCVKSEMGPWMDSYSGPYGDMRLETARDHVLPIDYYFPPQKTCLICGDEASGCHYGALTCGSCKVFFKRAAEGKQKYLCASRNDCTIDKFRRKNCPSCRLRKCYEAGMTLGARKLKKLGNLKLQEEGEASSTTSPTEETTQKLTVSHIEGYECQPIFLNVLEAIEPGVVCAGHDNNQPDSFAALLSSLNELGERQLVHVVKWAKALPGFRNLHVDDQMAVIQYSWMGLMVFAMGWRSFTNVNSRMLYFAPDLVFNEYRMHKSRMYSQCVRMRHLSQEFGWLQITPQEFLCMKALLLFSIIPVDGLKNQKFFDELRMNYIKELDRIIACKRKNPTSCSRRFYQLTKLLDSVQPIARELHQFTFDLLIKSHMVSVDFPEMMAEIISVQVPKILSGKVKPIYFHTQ
Description: pull-down; purified GST-tagged protein immobilised on glutathione-Sepharose beads, incubated with His-tagged protein in PMSF-supplemented affinity isolation buffer, western blotting. As to conditions: both partners purified.

B1: His-tagged STARD4 (natural protein, human (Gene ID 134429 is the human gene), UniProt Q96DR4 1-205, looked up)
chain: MEGLSDVASFATKLKNTLIQYHSIEEDKWRVAKKTKDVTVWRKPSEEFNGYLYKAQGVIDDLVYSIIDHIRPGPCRLDWDSLMTSLDILENFEENCCVMRYTTAGQLWNIISPREFVDFSYTVGYKEGLLSCGISLDWDEKRPEFVRGYNHPCGWFCVPLKDNPNQSLLTGYIQTDLRGMIPQSAVDTAMASTLTNFYGDLRKAL
notes: STARD4, Gene ID 134429, vector printed as pGMLV; also called His-STARD4; source: BL21 (Rosetta) bacterial cells, purified (protein purification kit)
As to B1, the binding result is listed as “binds”.

The values above are taken from paper PMC12699821, “STARD4 suppresses tumorigenesis and attenuates enzalutamide resistance via lipid metabolic reprogramming and AR stabilization in prostate cancer” (Journal of Experimental & Clinical Cancer Research : CR, 2025).
